Data set [1] deals with T1, LaR2C-N7 (La 174-180) (Homo sapiens).
T1 sequence: KYKETDL
Kind of data set: inhibition. As to conditions: inhibition of HCV IRES translation in rabbit reticulocyte lysate; rescued by La.

The target in data set [2] is T2, LaR2C peptide (24-mer, La 174-197) (Homo sapiens) (UniProt P05455).
T2 sequence: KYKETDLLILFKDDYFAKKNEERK
Nature of the data set: inhibition. As to conditions: inhibition of HCV IRES translation in rabbit reticulocyte lysate.

Here are results for one substance from patent US20090233868.

Broadly, the IC50 is the concentration needed to halve the response being measured. A low value points to greater potency in that assay.

Consider “HCV IRES-luciferase monocistronic RNA (uncapped)”, for which the IC50 in data set [1] is 40 µM; in data set [2], 30 µM.
